The labels stand for the following.
B1: Fab 72F8 (Fab, V domains shown)
VH: ELQLVESGGGLVQPGGSLRLSCAASGFTFSNYVMSWVRQAPGKGLEWVSDTNSGGSTSYADSVKGRFTISRDNAKNTLYLQMNSLKPEDTALYYCARSFFYGMNYWGKGTQVTVSS
VL: QSALTQPPSLSASPGSSVRLTCTLSSGNNIGSYDISWYQQKAGSPPRYLLNYYTDSRKHQDSGVPSRFSGSKDASANAGLLLISGLQPEDEADYYCSAYKSGSYRWVFGGGTHVTVL
notes: llama Fab (VH-CH1, lambda VL-CL) with MYC flag, crude periplasmic extract
B2: Fab 74C8 (Fab, V domains shown)
VH: EVQLVESGGGLVQPGGSLRLSCAASGFTFRNYHMSWVRQVPGKGFEWISDINSAGGSTYYADSVKGRFTISRDNAKNTLYLEMNSLKPEDTALYYCARVNVWGVNYWGKGTLVSVSS
VL: QTVVTQEPSLSVSPGGTVTLTCGLSSGSVTTSNYPGWFQQTPGQAPRTLIYNTNSRHSGVPSRFSGSISGNKAALTITGAQPEDEADYYCSLYPGSYTNVFGGGTHLTVL
notes: as for B1
B3: Fab 76G7 (Fab, V domains shown)
VH: QVQLVESGGNLVQPGGSLRLSCAASGFTFSNYYMSWVRQAPGKGLEWVSDIYSDGSTTWYSDSVKGRFTISRDNAKNTLSLQMNSLKSEDTAVYYCARVKIYPGGYDAWGQGTQVTVSS
VL: QAGLTQPPSVSGSPGKTVTISCAGNSSDVGYGNYVSWYQQFPGMAPKLLIYLVNKRASGITDRFSGSKSGNTASLTISGLQSEDEADYYCASYTGSNNIVFGGGTHLTVL
notes: as for B1

Consider three molecules from patent US20210024639A1 (AGOMAB THERAPEUTICS, published 2021).

The target in one assay is T1, human MET extracellular domain (ECD) (human, UniProt P08581 25-932).
T1 construct: range 1-932; recombinant ECD; also called hMET; human MET ECD
T1 sequence (P08581 25-932 limits assumed, form in doubt): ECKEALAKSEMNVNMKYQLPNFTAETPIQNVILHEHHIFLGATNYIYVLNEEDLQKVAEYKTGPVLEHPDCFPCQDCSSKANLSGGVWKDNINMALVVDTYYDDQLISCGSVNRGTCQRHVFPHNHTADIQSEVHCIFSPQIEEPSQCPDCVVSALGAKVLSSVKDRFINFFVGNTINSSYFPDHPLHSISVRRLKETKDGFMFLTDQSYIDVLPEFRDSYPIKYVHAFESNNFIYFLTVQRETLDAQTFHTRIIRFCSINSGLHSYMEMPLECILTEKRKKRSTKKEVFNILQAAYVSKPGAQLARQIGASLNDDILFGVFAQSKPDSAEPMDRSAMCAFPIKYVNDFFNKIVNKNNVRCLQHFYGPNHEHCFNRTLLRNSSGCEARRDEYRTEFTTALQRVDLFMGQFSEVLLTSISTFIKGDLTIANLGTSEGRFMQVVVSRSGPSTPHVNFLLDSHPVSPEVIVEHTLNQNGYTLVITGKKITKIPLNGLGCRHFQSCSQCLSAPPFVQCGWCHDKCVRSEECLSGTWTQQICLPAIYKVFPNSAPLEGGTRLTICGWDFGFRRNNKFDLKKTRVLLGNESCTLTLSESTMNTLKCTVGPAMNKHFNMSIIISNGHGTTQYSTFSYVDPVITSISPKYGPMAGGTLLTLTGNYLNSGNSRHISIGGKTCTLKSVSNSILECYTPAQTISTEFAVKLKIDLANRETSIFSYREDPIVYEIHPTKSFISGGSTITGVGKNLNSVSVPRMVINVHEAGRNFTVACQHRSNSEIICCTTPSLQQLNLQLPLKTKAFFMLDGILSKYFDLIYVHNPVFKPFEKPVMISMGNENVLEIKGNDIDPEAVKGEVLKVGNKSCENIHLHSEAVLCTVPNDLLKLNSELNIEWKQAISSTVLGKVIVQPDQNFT
As to the kind of experiment: ELISA, periplasmic Fab on MET ECD. As for the experimental part:
(§1) Fab-expressing phages from the libraries described above were produced according to standard phage display protocols. For selection, phages were first adsorbed to immobilized recombinant human MET ECD, washed, and then eluted using trypsin. After two cycles of selection with human MET ECD, two other cycles were performed in the same fashion using mouse MET ECD. In parallel, we also selected phages alternating a human MET ECD cycle with a mouse MET ECD cycle, for a total of four cycles. Phages selected by the two approaches were pooled together and then used to infect TG1 E. coli. Individual colonies were isolated and secretion of Fabs was induced using IPTG (Fermentas). The Fab-containing periplasmic fraction of bacteria was collected and tested for its ability to bind human and mouse MET ECD by Surface Plasmon Resonance (SPR). Human or mouse MET ECD was immobilized on a CM-5 chip using amine coupling in sodium acetate buffer (GE Healthcare). The Fab-containing periplasmic extracts were loaded into a BIACORE 3000 apparatus (GE Healthcare) with a flow rate of 30 μl/min. The Fab off-rates (koff) were measured over a two minute period. Binding of Fabs to human and mouse MET was further characterized by ELISA using MET ECD in solid phase and periplasmic crude extract in solution.
(§2) TABLE 7 Fabs binding to both human MET (hMET) and mouse MET (mMET). Fabs are grouped in families based on their VH CDR3 sequence. Binding of Fabs to human and mouse MET ECD was determined by Surface Plasmon Resonance (SPR) and by ELISA. SPR values represent the koff (s⁻¹). ELISA values represent the Optical Density (OD) at 450 nm (AU, arbitrary units). Both SPR and ELISA were performed using crude periplasmic extracts. Fab concentration in the extract was not determined. Values are the mean of three independent measurements.
In the case of B1, the “ELISA OD450” value was determined as 3.38 AU.
With B2, the “ELISA OD450” value was 2.98 AU.
On the same count and under the same terms, the value for B3 was 3.2 AU.

The target in a further assay is T2, mouse MET extracellular domain (ECD) (mouse, UniProt P16056 25-931).
T2 construct: range 1-931; recombinant ECD; also called mMET; mouse MET ECD
T2 sequence (P16056 25-931 limits assumed, form in doubt): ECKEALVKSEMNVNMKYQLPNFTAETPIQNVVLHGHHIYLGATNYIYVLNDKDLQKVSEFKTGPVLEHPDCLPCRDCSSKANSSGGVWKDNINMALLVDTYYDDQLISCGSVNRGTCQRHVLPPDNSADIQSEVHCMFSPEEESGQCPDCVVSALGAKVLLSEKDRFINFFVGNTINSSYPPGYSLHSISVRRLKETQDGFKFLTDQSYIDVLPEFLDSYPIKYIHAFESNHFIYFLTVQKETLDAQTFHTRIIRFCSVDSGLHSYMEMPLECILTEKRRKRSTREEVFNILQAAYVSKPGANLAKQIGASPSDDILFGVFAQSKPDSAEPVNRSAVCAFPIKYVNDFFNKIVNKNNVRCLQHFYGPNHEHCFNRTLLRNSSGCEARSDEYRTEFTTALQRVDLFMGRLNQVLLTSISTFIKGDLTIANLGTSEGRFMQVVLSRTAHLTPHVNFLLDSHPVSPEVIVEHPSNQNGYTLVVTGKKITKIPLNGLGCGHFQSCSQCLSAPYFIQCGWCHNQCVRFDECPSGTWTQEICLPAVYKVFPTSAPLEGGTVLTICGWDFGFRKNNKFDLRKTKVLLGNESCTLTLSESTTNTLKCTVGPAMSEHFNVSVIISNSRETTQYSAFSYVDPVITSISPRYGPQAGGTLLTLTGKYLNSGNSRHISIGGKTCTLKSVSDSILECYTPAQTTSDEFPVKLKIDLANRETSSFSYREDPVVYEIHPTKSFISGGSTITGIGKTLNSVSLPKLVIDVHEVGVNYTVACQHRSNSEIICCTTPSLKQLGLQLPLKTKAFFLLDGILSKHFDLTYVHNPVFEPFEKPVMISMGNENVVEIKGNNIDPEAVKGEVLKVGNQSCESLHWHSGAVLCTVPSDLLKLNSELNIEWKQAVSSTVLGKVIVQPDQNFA
As to the kind of experiment: ELISA, periplasmic Fab on MET ECD. The method, then:
as §1, §2
On the technique in general: ELISA stands for enzyme-linked immunosorbent assay.
With B1, the “ELISA OD450” value came out at 3.08 AU.
Still for that read-out and setting: the value for B2 was 2.92 AU.
As to B3, the “ELISA OD450” value was determined as 3.08 AU.
